14 sequences from the supplement of paper PMC12764529 can be followed below.

± gives the half width of the 95% confidence interval.

A short description of data set [1]: folding stability dG unfold from trypsin proteolysis; higher = more stable. In outline:
(§1)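 Designed mini-proteins (under 80 residues, no cysteine) in a PA-tagged cDNA display construct were digested with trypsin and chymotrypsin. Each protease was used at 11 concentrations (threefold dilutions) plus a no-protease condition, followed by sequencing. K50 was inferred by Bayesian fitting of sequencing counts, and unfolding free energy was derived against a sequence-predicted unfolded-state K50 and a shared folded-state K50, per protease or combined. Only designs with AlphaFold2 dimer inter-PAE above 15 were kept.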

Data set [2] is described as follows: folding stability dG unfold from chymotrypsin proteolysis; higher = more stable. In outline: as §1
A short description of data set [3]: folding stability dG unfold (combined trypsin and chymotrypsin); higher = more stable. In outline: as §1

With “SAMRIRIEVETRTGPDGRKYVVVRIRDEKTGEELELVFESREEAEEAAKALAEELKKAGYEIEVEIRPPSAG [r14_263_TrROS_Hall]”, the “folding stability dG unfold” value turned out to be 21.9 ± 1.97 kJ/mol in data set [1], 21.8 ± 0.837 kJ/mol in data set [2] and 21.8 ± 0.795 kJ/mol in data set [3].

As to “SAMSAEELAERLRERLKKLAEEEGLEVEITVTVEENEDGSLTVTITVKSEEEAERIKEKLPEGVKVEKKSAG [r14_491_TrROS_Hall]”, the “folding stability dG unfold” value in data set [1] is 5.98 ± 0.226 kJ/mol; in data set [2], 9.91 ± 0.418 kJ/mol; in data set [3], 8.96 ± 0.879 kJ/mol.

In the case of “SAMTIKIEVINEKGEKIEITIPVKKEDLEKLKEEIEKELKKLAEEKGEKVKVEIVEVDENGYLKIRVYKSAG [r14_622_TrROS_Hall]”, the “folding stability dG unfold” value was 11.5 ± 0.837 kJ/mol in data set [1], 10.6 ± 0.247 kJ/mol in data set [2] and 11.4 ± 0.879 kJ/mol in data set [3].

As to “SAMTITVVADSAEEAERAARELAERLREALRELGIEGAEIEIKVTVLPAPPPERVLVRDPETDEWKEVPSAG [r14_475_TrROS_Hall]”, the figures for the “folding stability dG unfold” value in data set [1], in data set [2] and in data set [3] were 0.771 ± 0.586 kJ/mol, 4.93 ± 0.13 kJ/mol and 4.1 ± 0.46 kJ/mol, respectively.

“SAMTIVIRLPPPPPPLTAEELAELLGAEVTEIRVERNEDGELVVTITVREDMSEEQRRRLLELLRERAESAG [r14_421_TrROS_Hall]”: the “folding stability dG unfold” value in data set [1] was found to be 18.1 ± 0.293 kJ/mol; in data set [2], 16 ± 0.201 kJ/mol; in data set [3] it was 16.8 ± 0.314 kJ/mol.

For “SAMTKLVEFDSEEEYEAAVKAAAAAGESVLARLKDPSGTYTVVEVEVDPETGTVTVKKTEKVPVDGSLGSAG [r14_455_JUSTAS]”, the “folding stability dG unfold” value in data set [1] was 2.6 ± 0.0753 kJ/mol; in data set [2], 5.73 ± 0.113 kJ/mol; in data set [3] it was 4.78 ± 0.176 kJ/mol.

Take “SAMTLEEAKKKGLVVIRVKIEVTLPNGEKREFERVIVAESLEEALEALREELEREGYKVEIVEIEIEKLSAG [r14_854_TrROS_Hall]”: the “folding stability dG unfold” value in data set [1] came to 11.5 ± 0.669 kJ/mol; in data set [2], 6.31 ± 0.46 kJ/mol; in data set [3], 8.55 ± 0.879 kJ/mol.

Regarding “SAMTLTVRVKATPEQLKEALEEETGAKVTIEEEEDGVLTITVEVSEEEREKLAEALKKLPGLEIEIEEESAG [r14_521_TrROS_Hall]”, the entries for the “folding stability dG unfold” value in data set [1], in data set [2] and in data set [3] were 8.13 ± 0.28 kJ/mol, 7.91 ± 0.109 kJ/mol and 7.93 ± 0.381 kJ/mol, respectively.

For the sequence “SAMTPEEIKKKVEELLKELAKELNAEVTSVKVDKETKTITVTVKVKLPNGETKTLTLKFTIDKDGKITFSAG [r14_183_TrROS_Hall]”, the “folding stability dG unfold” value is 15.4 ± 0.502 kJ/mol in data set [1], 18.8 ± 0.331 kJ/mol in data set [2] and 18.1 ± 0.586 kJ/mol in data set [3].

As to “SAMTPEELAARLAEALRREAEEAGLEIVDVRVEYDEETDTVTVEVVVRNKETGELVTRRVEIRSLEELLSAG [r14_409_TrROS_Hall]”, the “folding stability dG unfold” value in data set [1] stood at 18.9 ± 0.586 kJ/mol; in data set [2], 13.5 ± 0.247 kJ/mol; in data set [3] it was 16.7 ± 0.418 kJ/mol.

Consider “SAMTVTITLPPSISPEEAKAALEAAFPGEDIQVTTTTDPNAGTLTVTVTFSSPEDAARAAALLAEVRAASAG [r14_443_JUSTAS]”, for which the “folding stability dG unfold” value in data set [1] turned out to be 12 ± 0.192 kJ/mol; in data set [2], 19.6 ± 0.28 kJ/mol; in data set [3] it was 18.1 ± 0.322 kJ/mol.

On to “SAMVIEIEIPSEELLKKLEELLPPGARIKKVEIVKENGKVKIIVELEPGMSEEEKERIKKKIEELLKEESAG [r14_306_TrROS_Hall]”, for which the results for the “folding stability dG unfold” value in data set [1], in data set [2] and in data set [3] were 20.6 ± 1.92 kJ/mol, 15 ± 1.67 kJ/mol and greater than 25.1 kJ/mol, respectively.

As for “SAMVLDVSELTKKAIEELKKKNPKPLSPEEIVELGKKVAAEVAEKLGIPLKEIKVEPTGKHPKAVAELPSAG [r14_147_TrMRF]”, the entries for the “folding stability dG unfold” value in data set [1], in data set [2] and in data set [3] were 2.21 ± 0.402 kJ/mol, 3.51 ± 0.247 kJ/mol and 1.64 ± 2.18 kJ/mol, respectively.

“SAMVTIDYETLKELYEAGDPAKVEEILKKAYEEDPNKTITVIVPEDEKYKNLVLEAAKKMGLPITITGPSAG [r14_236_JUSTAS]”: the “folding stability dG unfold” value was 10.3 ± 0.285 kJ/mol in data set [1], 12.5 ± 0.213 kJ/mol in data set [2] and 11.9 ± 0.305 kJ/mol in data set [3].
